According to the supplement of paper PMC9112550, “Optimization of the antimicrobial peptide Bac7 by deep mutational scanning” (BMC Biology, 2022):

Each sequence was assayed on Escherichia coli TOP10 (assay: shrunken log2 fold change of peptide-encoding DNA abundance (4.5 h post-induction vs induction); higher = less antimicrobial activity (less host growth inhibition)). Details: time post-induction: 4.5 h; library: site-saturation at positions 5, 18, 19, 20.
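Also: peptides expressed intracellularly from a pBAD plasmid library in pooled LB shake-flask culture, induced with 0.3% L-arabinose, DNA abundance read by NGS, three biological replicates, DESeq2 with apeglm shrinkage.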

In order of falling “shrunken log2 fold change” value:
1. RRIRMRPPRLPRPRPRPTATPRP  3.59
2. RRIRRRPPRLPRPRPRPALWPRP  1.02
3. RRIRMRPPRLPRPRPRPQGWPRP  1.01
4. RRIRARPPRLPRPRPRPAAPPRP  0.99
5. RRIRLRPPRLPRPRPRPKPMPRP  0.964
6. RRIRWRPPRLPRPRPRPMTPPRP  0.764
7. RRIRGRPPRLPRPRPRPEFKPRP  0.741
8. RRIRVRPPRLPRPRPRPKPRPRP  0.638
9. RRIRKRPPRLPRPRPRPERKPRP  0.582
10. RRIRSRPPRLPRPRPRPQPKPRP  0.526
11. RRIRARPPRLPRPRPRPPGLPRP  0.517
12. RRIRMRPPRLPRPRPRPLMMPRP  0.452
13. RRIRWRPPRLPRPRPRPLPQPRP  0.248
14. RRIRSRPPRLPRPRPRPRVVPRP  0.245
15. RRIRWRPPRLPRPRPRPCAVPRP  0.198
16. RRIRRRPPRLPRPRPRPKSRPRP  0.174
17. RRIRKRPPRLPRPRPRPVTQPRP  0.169
18. RRIRQRPPRLPRPRPRPTAVPRP  0.165
19. RRIRSRPPRLPRPRPRPRRMPRP  0.141
20. RRIRNRPPRLPRPRPRPQHWPRP  0.13
21. RRIRGRPPRLPRPRPRPPYQPRP  0.123
22. RRIRARPPRLPRPRPRPWRVPRP  0.12
23. RRIRSRPPRLPRPRPRPAETPRP  0.114
24. RRIRVRPPRLPRPRPRPEYAPRP  0.111
25. RRIRHRPPRLPRPRPRPHEHPRP  0.103
26. RRIRRRPPRLPRPRPRPFCMPRP  0.084
27. RRIRKRPPRLPRPRPRPCAHPRP  0.0754
28. RRIRHRPPRLPRPRPRPKGLPRP  0.0749
29. RRIRERPPRLPRPRPRPQRKPRP  0.0503
30. RRIRDRPPRLPRPRPRPFWFPRP  0.0429
31. RRIRFRPPRLPRPRPRPNAQPRP  0.0328
32. RRIRLRPPRLPRPRPRPAKFPRP  0.0249
33. RRIRARPPRLPRPRPRPWTYPRP  0.0209
34. RRIRMRPPRLPRPRPRPQYGPRP  0.015
35. RRIRERPPRLPRPRPRPDTRPRP  0.0127
36. RRIRFRPPRLPRPRPRPAHFPRP  0.0115
37. RRIRDRPPRLPRPRPRPCRNPRP  -0.000921
38. RRIRPRPPRLPRPRPRPLDRPRP  -0.000978
39. RRIRYRPPRLPRPRPRPFQLPRP  -0.0518
40. RRIRSRPPRLPRPRPRPISSPRP  -0.0591
41. RRIRDRPPRLPRPRPRPSKGPRP  -0.0731
42. RRIRHRPPRLPRPRPRPWIRPRP  -0.0813
43. RRIRQRPPRLPRPRPRPCCSPRP  -0.0854
44. RRIRQRPPRLPRPRPRPQLSPRP  -0.0914
45. RRIRERPPRLPRPRPRPVMHPRP  -0.0979
46. RRIRFRPPRLPRPRPRPSDMPRP  -0.11
47. RRIRPRPPRLPRPRPRPIQIPRP  -0.119
48. RRIRERPPRLPRPRPRPTDQPRP  -0.127
49. RRIRCRPPRLPRPRPRPEYTPRP  -0.139
50. RRIRPRPPRLPRPRPRPDQEPRP  -0.151
51. RRIRSRPPRLPRPRPRPFICPRP  -0.163
52. RRIRLRPPRLPRPRPRPFESPRP  -0.168
53. RRIRFRPPRLPRPRPRPHVIPRP  -0.196
54. RRIRWRPPRLPRPRPRPRMYPRP  -0.196
55. RRIRMRPPRLPRPRPRPYICPRP  -0.201
56. RRIRMRPPRLPRPRPRPDNLPRP  -0.205
57. RRIRERPPRLPRPRPRPDEWPRP  -0.215
58. RRIRNRPPRLPRPRPRPHLYPRP  -0.22
59. RRIRLRPPRLPRPRPRPIFNPRP  -0.221
60. RRIRWRPPRLPRPRPRPVSVPRP  -0.258
61. RRIRYRPPRLPRPRPRPYKMPRP  -0.277
62. RRIRIRPPRLPRPRPRPLTPPRP  -0.284
63. RRIRYRPPRLPRPRPRPTQHPRP  -0.309
64. RRIRCRPPRLPRPRPRPFKEPRP  -0.342
65. RRIRVRPPRLPRPRPRPPCNPRP  -0.356
66. RRIRLRPPRLPRPRPRPIRIPRP  -0.379
67. RRIRPRPPRLPRPRPRPWYEPRP  -0.441
68. RRIRQRPPRLPRPRPRPGYIPRP  -0.625
69. RRIRDRPPRLPRPRPRPWYVPRP  -0.726
70. RRIRSRPPRLPRPRPRPYIMPRP  -0.845
71. RRIRFRPPRLPRPRPRPGTYPRP  -0.851
72. RRIRTRPPRLPRPRPRPMYCPRP  -0.873
73. RRIRHRPPRLPRPRPRPYVAPRP  -0.912
74. RRIRHRPPRLPRPRPRPNDNPRP  -1.03
75. RRIRHRPPRLPRPRPRPYFIPRP  -1.14
